Series [1] in a line: Chemical stability compared to CCK-8s, 8 mM phosphate pH 7.4, RP-UHPLC. The format is physicochemical. Particulars: for Absolute purity loss (pp): 1 mM in 8 mM sodium phosphate pH 7.4. As to the method:
The resulting samples were stored in HPLC vials at 5° C. and 37° C. for 2 weeks. The samples were analysed in the beginning of the experiment (t=0), after one week and after two weeks by RP-UHPLC with a mobile phase containing phosphate and with a gradient of acetonitrile. UV detection at 215 nm was used. Samples after one week and two weeks were analysed twice. The calculations were done as described above, and the results are summarised in Table 7 (average of two determinations).

Series [2] can be described thus: Pharmacokinetic (PK) studies in mini-pig, i.v. The format is in vivo. To be noted: i.v. 5 nmol/kg, female Göttingen mini-pigs, harmonic mean; for half-life: minipig, plasma, iv, read-out: Plasma terminal half-life (T½) (converted). As to the method: The purpose of this study is to determine the protraction in vivo of a number of CCK derivatives of the invention after intravenous (i.v.) administration to mini-pigs, i.e. the prolongation of their time in the body and thereby their time of action. This was done in pharmacokinetic (PK) studies, where the terminal half-life of the derivative in question was determined. By terminal half-life is generally meant the period of time it takes to halve a certain plasma concentration, measured after the initial distribution phase.
The derivatives of the compounds listed in Table 4 were subjected to PK studies as described in the following.
Female Göttingen mini-pigs obtained from Ellegaard Göttingen Minipigs (Dalmose, Denmark) at approximately 6 months of age and weighing approximately 17 kg were used in the studies. […] Additional blood samples were collected for the derivatives of Examples 2, 4, 7, 8, and 9 at the following time points: 5, 12, 22, 28 and 144 hours. The blood samples were collected into test tubes containing EDTA buffer for stabilisation and kept on ice for max. 20 minutes before centrifugation. The centrifugation procedure to separate plasma was: 4° C., approx. 2500 g for 10 minutes. Plasma was collected and immediately transferred to Micronic tubes stored at −20° C. until assayed.
Plasma was pipetted into Micronic tubes on dry ice, and kept at −20° C. until analysed for plasma concentration of the respective CCK derivative using LC-MS. The plasma samples (including standard curve samples used for quantitation of unknowns and prepared from blank plasma spiked with CCK compound at a concentration range of 0.5-2000 nM for the compounds of Examples 3, 5, 6 or 0.5-1000 nM for the remaining Example compounds) were protein precipitated using three volumes of methanol and centrifuged (16000×g, 4° C., 20 min). The supernatants were injected into the chromatographic system (TurboFlow Transcend 1250 & 10 valve VIM, Thermo Fisher Scientific) which consisted of an initial Turboflow Cyclone purification column 0.5×50 mm (Thermo Fischer Scientific) and an eluting Aeris peptide 3.6 μm XB—C18 column 2.1×50 mm (Phenomenex) kept at 60° C.
The CCK derivatives of Examples 2-9 were eluted using LC-MS method I: A chromatographic gradient system with mobile phases consisting of water with 0.1 v/v % formic acid (mobile phase A) and water/acetonitrile 10/90 v/v with 0.1 v/v % formic acid (mobile phase B). The 2 minute gradient started at 60% mobile phase B and ended at 100% mobile phase B with a flow of 0.4 mL/min. The CCK derivatives were detected and quantified after on-line infusion of the LC flow to the LTQ OrbiTrap Discovery mass spectrometer (Thermo Fischer Scientific) equipped with an electrospray interface operated in negative mode, ESI− (Sheath gas flow rate at 40, Aux gas flow rate at 30, Sweep gas flow rate at 2, Spray voltage at 2.8 kV, Capillary temp. at 275° C., S-lens RF level at −125 and Heater temp. at 325° C.).
The remaining Example compounds were eluted using LC-MS method II: A chromatographic gradient system with mobile phases consisting of water with 1 v/v % formic acid (mobile phase A) and water/acetonitrile 10/90 v/v with 1 v/v % formic acid (mobile phase B). The initial 0.25 minute gradient started at 0% mobile phase B and ended at 70% mobile phase B followed by the second 2.2 minute gradient started at 70% mobile phase B and ended at 75% mobile phase B with a flow of 0.4 mL/min. These CCK derivatives were detected and quantified as described above except that the Spray voltage was 4.0 kV.
Individual plasma concentration-time profiles were analysed by a non-compartmental model in Phoenix v. 6.3 (Pharsight Inc., Mountain View, Calif., USA).

The target of series [3] is T1, human cholecystokinin-2 receptor (CCK-2R) (Homo sapiens, UniProt P32239).
T1 construct: host or cells: 1321-N1 cells (plasma membranes prepared by Evotec AG Hamburg)
T1 sequence (P32239 1-447): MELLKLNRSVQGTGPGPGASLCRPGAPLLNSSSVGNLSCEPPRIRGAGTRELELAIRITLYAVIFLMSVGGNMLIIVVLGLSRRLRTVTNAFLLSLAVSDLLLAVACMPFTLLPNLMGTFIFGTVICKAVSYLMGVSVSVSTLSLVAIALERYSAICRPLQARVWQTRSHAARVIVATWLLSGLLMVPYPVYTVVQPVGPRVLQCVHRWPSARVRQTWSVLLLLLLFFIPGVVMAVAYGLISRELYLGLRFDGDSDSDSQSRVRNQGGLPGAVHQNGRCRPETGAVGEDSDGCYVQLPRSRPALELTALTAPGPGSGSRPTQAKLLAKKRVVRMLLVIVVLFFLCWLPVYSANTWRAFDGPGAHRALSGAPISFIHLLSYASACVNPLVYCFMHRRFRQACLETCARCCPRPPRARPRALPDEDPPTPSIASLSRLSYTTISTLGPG
In words: In vitro receptor binding to CCK-2R, SPA displacement of [125I]-CCK-8s from plasma membranes.

For series [4], the target named is T1, human cholecystokinin-2 receptor (CCK-2R). In words: In vitro potency on CCK-2R, whole cell functional assay (IP1 accumulation, IP-One HTRF). The format is cell-based. Particulars: 1321-N1 cells stably expressing CCK-2R; IP1 accumulation; highest dose tested 1×10^6 pM; read-out: EC50 (CCK-2R).
In series [5] the target is T2, human cholecystokinin-1 receptor (human), P32238.
T2 chain: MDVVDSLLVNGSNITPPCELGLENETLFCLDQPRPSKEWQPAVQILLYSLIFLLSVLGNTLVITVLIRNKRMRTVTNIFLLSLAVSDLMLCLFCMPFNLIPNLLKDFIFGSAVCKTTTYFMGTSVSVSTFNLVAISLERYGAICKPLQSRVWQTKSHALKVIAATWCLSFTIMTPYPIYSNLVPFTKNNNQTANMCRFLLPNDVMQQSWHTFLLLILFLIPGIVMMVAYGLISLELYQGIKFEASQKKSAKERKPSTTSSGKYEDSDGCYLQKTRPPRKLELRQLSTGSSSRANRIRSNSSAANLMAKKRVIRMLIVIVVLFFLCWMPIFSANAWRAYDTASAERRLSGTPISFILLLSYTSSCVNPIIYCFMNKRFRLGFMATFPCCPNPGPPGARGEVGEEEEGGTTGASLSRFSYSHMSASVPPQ
In words: cell-based or functional assay.

In series [6] the target is T3, human cholecystokinin-2 receptor (human), P32239.
T3 chain: T1 sequence (P32239 1-447)
Put plainly: cell-based or functional assay.

Series [7] addresses T2, human cholecystokinin-1 receptor …. Put plainly: SPA competition vs [125I]-CCK-8s, membranes.
Series [8] concerns the target T3, human cholecystokinin-2 receptor …. Put plainly: SPA competition vs [125I]-CCK-8s, membranes.

Starred links: 1 amine or outer side, 2 acyl side, 3 side chain; linkers in the order of their positions; H or OH if unused. Non-standard residues stand in square brackets, D forms with d. Residues, ends and D or L forms follow the SMILES beside them. No end group written: not given here. *: point of attachment. Phe(4-CH2SO3H) = N[C@@H](Cc1ccc(CS(=O)(=O)O)cc1)C(=O)O; sY = N[C@@H](Cc1ccc(OS(=O)(=O)O)cc1)C(=O)O; C18 diacid = O=C(O)CCCCCCCCCCCCCCCCC(=O)*; NMe1Nal = CN[C@@H](Cc1cccc2ccccc12)C(=O)O; γGlu = O=C(O)[C@H](CCC(=O)[*:2])N[*:1]; NMeF = CN[C@@H](Cc1ccccc1)C(=O)O; dNMeD = CN[C@H](CC(=O)O)C(=O)O; Nle = CCCC[C@H](N)C(=O)O; AEEA = NCCOCCOCC(=O)O

`CSCC[C@H](NC(=O)[C@H](Cc1ccc(OS(=O)(=O)O)cc1)NC(=O)[C@@H](N)CC(=O)O)C(=O)NCC(=O)N[C@@H](Cc1c[nH]c2ccccc12)C(=O)N[C@@H](CCSC)C(=O)N[C@@H](CC(=O)O)C(=O)N[C@@H](Cc1ccccc1)C(N)=O` [CCK-8s, H-Asp-Tyr(SO3H)-Met-Gly-Trp-Met-Asp-Phe-NH2]: in series [1] (1 mM in 8 mM sodium phosphate pH 7.4, t=0), the “purity at the start of the experiment (incubation time 0)” value came out at 97.94%. Also, the “Absolute purity loss (pp)” value in series [1] (5° C., 1 week) is reported as −0.04 pp; in series [1] (5° C., 2 weeks) it was 0.09 pp; in series [1] (37° C., 1 week), 1.42 pp; in series [1] (37° C., 2 weeks), 3.33 pp.
In the case of `CCCC[C@H](NC(=O)[C@H](Cc1c[nH]c2ccccc12)NC(=O)CNC(=O)[C@H](CC(C)C)NC(=O)[C@H](Cc1ccc(CS(=O)(=O)O)cc1)NC(=O)[C@H](CC(=O)O)NC(=O)COCCOCCNC(=O)COCCOCCNC(=O)CC[C@H](NC(=O)CCCCCCCCCCCCCCCCC(=O)O)C(=O)O)C(=O)N(C)[C@H](CC(=O)O)C(=O)N(C)[C@@H](Cc1ccccc1)C(N)=O` [Example 5, 2-[2-[2-[[2-[2-[2-[[(4S)-4-Carboxy-4-(17-carboxyheptadecanoylamino)butanoyl]amino]ethoxy]ethoxy]acetyl]amino]ethoxy]ethoxy]acetyl-Asp-Phe(4-sulfomethyl)-Leu-Gly-Trp-Nle-DMeAsp-MePhe-amide] ({C18 diacid-γGlu-AEEA-AEEA}-D[Phe(4-CH2SO3H)]LGW[Nle][dNMeD][NMeF]-NH2), in series [2], the half-life was 106 h. The molecule also had an IC50 in series [3] of 380 nM.
As to `CCCC[C@H](NC(=O)[C@H](Cc1c[nH]c2ccccc12)NC(=O)CNC(=O)[C@H](CC(C)C)NC(=O)[C@H](Cc1ccc(OS(=O)(=O)O)cc1)NC(=O)[C@H](CC(=O)O)NC(=O)CCCCCCCCCCCCCCCCC(=O)O)C(=O)N(C)[C@H](CC(=O)O)C(=O)N(C)[C@@H](Cc1ccccc1)C(N)=O` [Example 38, 17-Carboxyheptadecanoyl-Asp-sTyr-Leu-Gly-Trp-Nle-DMeAsp-MePhe-amide], in series [2], the half-life is 3 h. Further, in series [4], the EC50 was more than 1000 nM.
On to `CCCC[C@H](NC(=O)[C@H](Cc1c[nH]c2ccccc12)NC(=O)CNC(=O)[C@H](CC(C)C)NC(=O)[C@H](Cc1ccc(OS(=O)(=O)O)cc1)NC(=O)[C@H](CC(=O)O)NC(=O)COCCOCCNC(=O)COCCOCCNC(=O)CC[C@H](NC(=O)CCCCCCCCCCCCCCCCC(=O)O)C(=O)O)C(=O)N(C)[C@H](CC(=O)O)C(=O)N(C)[C@@H](Cc1cccc2ccccc12)C(N)=O` [Example 4, 2-[2-[2-[[2-[2-[2-[[(4S)-4-Carboxy-4-(17-carboxyheptadecanoylamino)butanoyl]amino]ethoxy]ethoxy]acetyl]amino]ethoxy]ethoxy]acetyl-Asp-sTyr-Leu-Gly-Trp-Nle-DMeAsp-Me1Nal-amide] ({C18 diacid-γGlu-AEEA-AEEA}-D[sY]LGW[Nle][dNMeD][NMe1Nal]-NH2), for which, in series [2], the “Plasma terminal half-life (T½)” value was 147 h. For the same molecule, the EC50 in series [4] was 340 nM.
{C18 diacid-γGlu-AEEA-AEEA}-D[sY]LGWI[DMeAsp][NMeF]-NH2 gave an EC50 (CCK-1R) in series [5] of 0.18 nM. The EC50 (CCK-2R) in series [6] was 260 nM. Further, the IC50 in series [7] stood at 0.1 nM; in series [8], 2300 nM.
On the same counts, the results for {C18 diacid-γGlu-AEEA-AEEA}-D[sY]LGWV[DMeAsp][NMeF]-NH2 are 0.14 nM, 730 nM, 0.31 nM and 6400 nM.
{C18 diacid-γGlu-AEEA-AEEA}-D[sY]LGWL[DMeAsp][NMeF]-NH2 came in with an EC50 (CCK-1R) in series [5] of 0.27 nM. Moreover, the EC50 (CCK-2R) in series [6] was 79 nM. The molecule further displayed an IC50 in series [8] of 420 nM.
As for D[sY]LGWI[DMeAsp][NMeF]-NH2 [Asp-sTyr-Leu-Gly-Trp-Ile-DMeAsp-MePhe-amide], the EC50 (CCK-1R) in series [5] turned out to be 0.24 nM. Also, the EC50 (CCK-2R) in series [6] was more than 1000 nM. The IC50 came out at 0.078 nM in series [7] and 6100 nM in series [8].
For {C18 diacid-γGlu-AEEA-AEEA}-D[sY]LGWP[DMeAsp][NMeF]-NH2, in that order: 0.17 nM, 150 nM, 0.19 nM and 1000 nM.

Source of the values: US20170008928A1, “NOVEL PEPTIDES AND PEPTIDE DERIVATIVES AND USES THEREOF” (Novo Nordisk A/S, priority 2015, published 2017).
